Assay results published in the DeepSol protein solubility set.

test: soluble on expression in E. coli; label from the status in PepcDB or PDB records

Sequence	soluble on expression in E. coli
MATAKKITIHDVALAAGVSVSTVSLVLSGKGRISTATGERVNAAIEELGFVRNRQASALRGGQSGVIGLIVRDLSAPFYAELTAGLTEALEAQGRMVFLLHGGKDGEQLAQRFSLLLNQGVDGVVIAGAAGSSDDLRRMAEEKAIPVIFASRASYLDDVDTVRPDNMQAAQLLTEHLIRNGHQRIAWLGGQSSSLTRAERVGGYCATLLKFGLPFHSDWVLECTSSQKQAAEAITALLRHNPTISAVVCYNETIAMGAWFGLLKAGRQSGESGVDRYFEQQVSLAAFTDATPTTLDDIPVTWASTPARELGITLADRMMQKITHEETHSRNLIIPARLIAAK	not soluble
MPSGLEQCAPRCRALLQGESGVQIQGHYELKFEAVREAFAALFEDSQERGAALCIQVGGETVIDLWAGTADKDGAEAWHSDTIANLFSCTKTFTAVTALQLVAEGKLKLDAPVADYWPEFAAAGKAAITLRQLLCHQAGLPAVRELLPAQALYEWQTMVDALAAEQPWWTPGEGHGYAAITYGWLVGELIRRADGRGPGESIVARVARPLGLDFHVGLADEEFYRVAHIARGKGNMGDAAAQRLLQVTMREPDAMSTRAFTNPPSILTSTNKPEWRRMQQPAANGHGNARSLAGFYSGLLDGSLLEADMLEELTREHSLGMDKTLLTQTRFGLGCMLDQPQVANATFGLGARAFGHPGAGGSIGFADPEHDVAFGFVTNTLGPYVLMDPRAQKLVRVLSDCLLEHHHHHH	not soluble
AAKGTAETKQEKSFVDWLLGKITKEDQFYETDPILRGGDVKSSGSTSGKKGGTTSGKKGTVSIPSKKKNGNGGVFGGLFAKKD	soluble
NSNFINIGERTNVAGSRKFARLIREKNYEEALTIARHQVENGAQIIDINFDDALLDARSEMETFLRLIASEPEISKVPVMIDSSNFEVLKVGLKSIQGKAIVNSISLKVGEEKFIEEAKFIKNFGAGVVVMAFDEEGQAATYERKIEICKRAYTILTEKVEFPPENIIFDPNILSIATGIEEHDNYAVNYIKAVKWIKENLPYAKVSGGVSNLSFSFRGNDAIRRAMHSVFLYHAINAGMDMGIVNPAMIDLYDDIDKDLLEKVENVVLNKSSNASESLLEFAQTYKKTTETLEKH	not soluble
AHHHHHHGSGRFKKVPSSLCPMKKPGDVLREILQEKGIKSVGTLSRKWPSGRDIYQELALLLLEGDGAIVELREETAESWDLNGKKVGPSKYAYVRPCFVEKFKVIVDGSEIAKRLPDYPWIIVDLTFWNRHIPKEKDKVALQLRETYAVVRRMYYPRRFAITWVNEEFKKKNKVPLEKVVSYEGSTADFLREKGINRVVLLDPNAEEVLSREDLQERAFIIGGIVDMKGDKKGTTAKIGEVLEKEGIDVLRRKIVLRGDIVGVPDRINHIAEILLRMLYGEDMEKAILAVQAPTHARWRLRKEIPKRKIRYLIDGKLYLVVEKELYDELKQWLNIRWEDFVKVLRETGMVALERRRIHHLNKISVFRFDKSGGKRVILLKRAALLCYNC	soluble
MTYEAFVELVERLWEEVPEDFKRGLQGVHVFPEAKPEPGLEGVWRLGEYLDPGPPSAFGGFEDLGRHIALYYGSFLEVAGEGFDWEAEVWETMLHELRHHLESLAGRDDLVQEDLRRLDAFRRGGPSGEG	soluble
MIHPARPLRGQAALEARDPNARLEEAVGLAVALDLNVVEALVAPLRVVTPATLFGKGKVEEFAAICEVEHIDVAVFDDQLTPIQQRNLEKALKVKVVDRTGLILEIFARRARTREGRLQVELARLDYERSRLVRTWTHLERQRGGTGSTGGPGETQIEIDRRLIAGTILKLKKELEEVRRTRTLHRSARKKVPYPTVALVGYTNAGKSTLFNRLTEAEVLAKDMLFATLDPTLRTVKLPDGRPAIMSDTVGFISDLPHELVEAFRATLEEVQEADVVLHVRDVANPDSEAQARDVETVLAELGVTLDEGKTVVEVWNKVDLLSEDDREIVEGQARRNDASAVSAVTGEGCEALLRRIAGLIDDSPPVEVSLAAQDGQALAWIYRNGRVLSRYDGPGGEVTLVARLDAQALGRFERQFPGAQVSAAVDLEHHHHHH	soluble
MKIAIASGKGGTGKTTVAVNLALALEEVQLFDCDVEEPNCNLFLGFEMEPVEEVVFLVPEINPDKCTLCRGCSDFCRYNALAAIPNRILSFPSLCHGCGGCSFVCPAGAIEEKPETIGIIQKALSDSPLTFFCGTLKIGKATATPVIKSLQNHIDESRPAIIDSPPGTACPVLAVMGFADYCVLVTESTPFGFHDFCLALEAARALNVPVGVVLNRDGLGDSRVEDFCRAEGIPILLRIPNDRTIARLYSEGIPFVKEMPEWKKQFKDMFETIKTGLYESKGVQLEHHHHHH	not soluble
MIGIVAAFEKVKIPEMGKSFGTGWLPPLPSLKDYTEESAQIPEMAEKLGIPTSRKETKTLELPVSIDFRNWCSPIEDQMDLGSCTAHAGVGVVEYFERRAFGKHIDGSRFFVYKTTRNLMGVKGDTGAWLRNTMGALALCGVPPEKYFPYTSRKTPGPDGEPTFDDEPSSFVYSLADNFEALNYFCHDPQGMNLPPEDVILSVKKYLAAGIPSMFGFYGFPSFKDTDVKGGIPFPGPDERSIWGHAVVAVGYDDNMKIRNTLSNKETTGAFLIRNSWGTAWGDKGYGWLPYEYALNKLEHHHHHH	not soluble
MEPAAGFLSPRPFQRAAAAPAPPAGPGPPPSALRGPELEMLAGLPTSDPGRLITDPRSGRTYLKGRLLGKGGFARCYEATDTETGSAYAVKVIPQSRVAKPHQREKILNEIELHRDLQHRHIVRFSHHFEDADNIYIFLELCSRKSLAHIWKARHTLLEPEVRYYLRQILSGLKYLHQRGILHRDLKLGNFFITENMELKVGDFGLAARLEPPEQRKKTICGTPNYVAPEVLLRQGHGPEADVWSLGCVMYTLLCGSPPFETADLKETYRCIKQVHYTLPASLSLPARQLLAAILRASPRDRPSIDQILRHDFFTKGYTPDRLPISSCVTVPDLTPPNPARSLFAKVTKSLFGRKKKSKNHAQERDEVSGLVSGLMRTSVGHQDARPEAPAASGPAPVSLVETAPEDSSPRGTLASSGDGFEEGLTVATVVESALCALRNCIAFMPPAEQNPAPLAQPEPLVWVSKWVDYSNKFGFGYQLSSRRVAVLFNNGTHMALSANRKTVHYNPTSTKHFSFSVGAVPRALQPQLGILRYFASYMEQHLMKGGDLPSVEEVEVPAPPLLLQWVKTDQALLMLFSDGTVQVNFYGDHTKLILSGWEPLLVTFVARNRSACTYLASHLRQLGCSPDLRQRLRYALRLLRDRSPA	soluble
MGSDKIHHHHHHMAVRPYWKGYLKLSLVTCPVQMMPATSESEKVRFHTLNRETQNRVVSHYVDSVTGKEVKDEDEVKGYQRGENEYIILEDEELENVALDSTKTIDISTFTPRDSVEWIWLDTPYYLSPNDPVGQEAFSVIRDAMEAQNMVGISRLVISRRERAVMLEPRGKGIVLWTLRYGDEVRDEDTYFAGIDDEETADREMMPLVQQLIKKQTKHWDAKMVIDPVQERLLDIIAAKKKALKKSARAKPSAPAKSTPSNVINIMDALKKSVAAENRSSK	not soluble
MGSDKIHHHHHHMVMLKMKKTIAYYRSSTDLQENSIEMQQIKAFEYSMKKRITIDEEYVDKDVSARKKTLMQRPGMNKLMKEIEAGVVGSIIVYKRDRFARKLQEHMQLYRLFQEYDIDVYFSSDSEVQMNYSPIGEYIEAILGSICENEGSLIAQRIQETKIAKFLSGKYAGNLPYGYEKGEPNADGQVNILQVSHEIEVVKEIYNALLNKECKSIQELCNDLNEKYKTEETKDWDQSKVVNIVKNPIYHGLRVMNFGSKEYKKAYKNIKVVEKTDWDIANEQLDKMIVKRETGKETIQFLLENILYCHECQKPLIAKKRMRSYQDYYIYECKEHDVCVEAGYIEVEILKHAKTFFHRLLDENFNELYERSTYQNVRKIKKLIGSQEMIIKGVTKKVGKLIDQWLNCQKMQREHEGNDCAKCQSNQHIGEIKEANEILKSEKRKLQHLDMRLYEIKNFKEKAKEWITHLECPKDILLLEKEERKRFYRDMIHCIQVDSWEYHIVFKHPFMLIQEVHQNSETV	not soluble
MGSDKIHHHHHHMKNTPIERNVIDETINEFQIVDFSKATIREVKAIASKAEAVSGVEFIKMEMGVPGLPASAVGVKAEIEALQNGIASLYPDINGLPELKKEASDFIKAFINVDLSPEGCVPVTGSMQGTFASFLTCSQCDEKKDTILFIDPGFPVQKQQLVVMGQKYETFDVYDYRGDKLKEKLESYLRKGNISAIIYSNPNNPSWICLKDEELRIIGELATQYDVIVLEDLAYFAMDFRQDLSTPYQAPFQPSVAHYTDNYVLLISGSKAFSYAGQRIGVSCISDKLYHRSYPGLTKRYGGGTFGTVFIHRVLYALSSGTSHSAQYAMAAMLKAANEGQYNFLSEVKVYGDRAQKLKEIFLRHGFYLVYDNDLGDPIADGFYFTIGYPGMTSGELAKELMYYGVSAISLVTTGSHQEGLRACTSFIKDHQYAQLDERMKLFAEHHPIA	not soluble
MGSDKIHHHHHHMNILFVAPYTPSPIRVRPYQFIRHLARRGHTITLVCVADNEAALAELRTICRRVVAVPTRTGDHVLAYIRALPTRLPLQAAHCLTPAMITAVTREIQSGDHDVIHIEHLRAAEIGLAALHQSGGGLPVVLDAVDSISLLFERTFRRSSSLSGRLRALIDLARTRHYEATYPHRFAAVVVTSPEDRWALMTLNQTLSHPGHNPLVVAPNGVDLEYFQPHTGPRHPASLVFTGKMSYHANEAAARYLVEAIMPRVWAVRPEVTVTLAGAEPGAHIRAYAHDPRITVTGAVPDLRPYLTQATIAVAPIRYGVGVQNKVLEAMATATPVITARQATVALSVQPGHDLIVADDAAEFAQAILNLLADPERRDRLGQAGRMYVERHHHWQQSVTCLESVYRAVTTPVYTH	not soluble
MGHHHHHHSHMAAPPQLRALLVVVNALLRKRRYHAALAVLKGFRNGAVYGAKIRAPHALVMTFLFRNGSLQEKLWAILQATYIHSWNLARFVFTYKGLRALQSYIQGKTYPAHAFLAAFLGGILVFGENNNINSQINMYLLSRVLFALSRLAVEKGYIPEPRWDPFPLLTAVVWGLVLWLFEYHRSTLQPSLQSSMTYLYEDSNVWHDISDFLIYNKSRPSN	not soluble
MSLTISTQCSKCEKIYDDNKRKICSGKCGHSICESCFDRKSSDICSICNQIDSFGVKCINRSAMEMVEMKKNAFSFSDIWIFKFDPKEHFNGPCSKCNDYSTMLRVCTNSAVQAGLLVKTGENSFDLTPHTTDELLETIILRIKSIGICADCVINNGLKEDVVMMKNIKRLYDIAKALNYLSMFSFSMKQIEREIEEFKNKKNQLRFYNMYYHFVKETYPEIMKWLKNDLVRISAPPCWQVLLKIVSIMTQAAQSLFLKSAERELQISKEKLRDSKGNSEWQKTVDKLENFRDFLEINHVDAEIQPIDMWNFFVLCTTEELDKVTAIINRNLKIQGKSSRETLKEVYYLTRDVRKTLPFQIPERFAGFIDRFIRVLVGENLDEEQALEIQSTT	not soluble
MAHHHHHHMSLKAKLDVYPVENYTQTSVDVSNGHAGVAGNKVNLGAGSAAPFRPPSAIEKLLSLKKRCEEEPCVHSVEGVLLVHLHRHPHILLMKQINSRTRDADGMRTVPPSNTNAEVTYRLPGGRCRRGEAEESCLLRKLGRHLLNEAKTPAGAAEVASTGNSDTVVDVGMTHTASKAGSCFRVGEVLATWYRPHFTPHMYPYVPAHIAAGSVREVRTIYLVHLEPTVYFTMVQESVELVAAPLFDLYENSSKYGPIVASLPVLLSRVLINYCSTEY	not soluble
LVPRGSHMTNDTSGVLTIATTHTQARYSLPEVIKAFRELFPEVRLELIQGTPQEIATLLQNGEADIGIASERLSNDPQLVAFPWFRWHHSLLVPHDHPLTQISPLTLESIAKWPLITYRQGITGRSRIDDAFARKGLLADIVLSAQDSDVIKTYVALGLGIGLVAEQSSGEQEEENLIRLDTRHLFDANTVWLGLKRGQLQRNYVWRFLELCNAGLSVEDIKRQVMES	soluble
